The values below come from article PMC4409929 (Cell, 2015).

B2: TcEsxB, EsxB of Thermomonospora curvata (natural protein, UniProt D1A4H0 1-104, looked up)
chain: MAPQSAVDRAAMAQAAQDIEQSANAIRGMQNQLASAKDQLRSHWEGDASMAFEAVFNRFNEDFSRVLKALDGMHESLVQTRITYEAREEAAQQSVNRVQALLNG
B4: TcEccC(cyto,R543A) (domain or fragment, Thermomonospora curvata, UniProt D1A4G7 199-1315, looked up)
chain: VPDLPVAISLRSFARILPDGDPKAVYGMVRALIMQLAAFHSPDDVRITVCASRERMPQWQWMKWLPHSLHPTEYDAAGQVRLLTHSLVELESMLGPEIKDRGMFGASRAPAEPFHLVIVDGGQASYDSQIASDGIDGVCVIDLTGSVAETNEATMLRLRVTPERVYVVKRDRAGKEVLSSVGRPDQASIAEAEALARQLAPFRTSAADEPEEDVLSANMTLTSLLHIDNPYNLDPAVLWRPRPQRNRLRVPIGLDADGRPLELDIKESAQGGMGPHGLCIGATGSGKSELLRTLVLALAMTHSPEVLNFVLVDFKGGATFLGMEGLRHVSAIITNLEEELPLVDAMYDALHGEMVRRQEHLRHSGNYASLRDYEKARMEGAPLPPMPTLFIVLDEFSELLSAKPDFAELFVMIGRLGRSLGVHLLLASQRLEEGKLRGLDTHLSYRIGLRTFSAMESRVVLGVPDAYELPPSPGNGYLKFATEPLVRFKAAYVSGPVDEEPQTRSEGPQIVRQVLPYLTDYIRPQVVEQPQPEQRAEENKSSESLFDVVVRQLAGHGPEPHQIWLPPLDVPPTLDELLPPLSPSAAHGYTADGWEWRGRLHAVVGLVDRPFDQRRDPYWLDLSGGAGHVGVAGGPQTGKSTMLRTLITSLALLHTPQEVQFYCLDFGGGTLAGLAELPHVGSVATRLDADRIRRTVAEVSALLEQREQEFTERGIDSMATYRRLRATGEYAGDGFGDVFLVVDNWLTLRQDYEALEDSITQLAARGLGYGIHVVLSSNKWSEFRTSIRDLLGTKLELRLGDPYESEVDRKKAANVPENRPGRGLTRDGYHFLTALPRIDGDTSAETLTEGIATTVKTIREAWHGPTAPPVRMLPNVLPAAQLPSAAESGTRIPIGIDEDSLSPVYLDFNTDPHFLVFGDTECGKSNLLRLITAGIIERYTPQQARLIFIDYSRSLLDVATTEHQIGYAASSTAASSLVRDIKGAMEARLPPPDLTPEQLRSRSWWTGAELFLVVDDYEMVATSDNPLRPLAELLPQARDIGLHLIIARSMGGAGRALYEPIIQRIKEMASPGLVMSGNKDEGILLGNVKPHKLPQGRGYFVERRSGTRLIQTAYRES

Read-outs that look alike come from different tables or passages of the source. Where no end group is shown, it is not given here. The star is where a group is joined. 5FAM = O=C1OC2(c3ccc(O)cc3Oc3cc(O)ccc32)c2ccc(C(=O)*)cc21

One series concerns the target GbEssCb (Geobacillus thermodenitrificans, UniProt A4IKE7). The note with it: ATP bound in both ATPase domains.
In series [1] the target is B2.
Series [2] deals with T1, TcEccC(cyto), cytoplasmic portion of EccC from Thermomonospora curvata (Thermomonospora curvata, UniProt D1A4G7 199-1315).
T1 sequence (looked up): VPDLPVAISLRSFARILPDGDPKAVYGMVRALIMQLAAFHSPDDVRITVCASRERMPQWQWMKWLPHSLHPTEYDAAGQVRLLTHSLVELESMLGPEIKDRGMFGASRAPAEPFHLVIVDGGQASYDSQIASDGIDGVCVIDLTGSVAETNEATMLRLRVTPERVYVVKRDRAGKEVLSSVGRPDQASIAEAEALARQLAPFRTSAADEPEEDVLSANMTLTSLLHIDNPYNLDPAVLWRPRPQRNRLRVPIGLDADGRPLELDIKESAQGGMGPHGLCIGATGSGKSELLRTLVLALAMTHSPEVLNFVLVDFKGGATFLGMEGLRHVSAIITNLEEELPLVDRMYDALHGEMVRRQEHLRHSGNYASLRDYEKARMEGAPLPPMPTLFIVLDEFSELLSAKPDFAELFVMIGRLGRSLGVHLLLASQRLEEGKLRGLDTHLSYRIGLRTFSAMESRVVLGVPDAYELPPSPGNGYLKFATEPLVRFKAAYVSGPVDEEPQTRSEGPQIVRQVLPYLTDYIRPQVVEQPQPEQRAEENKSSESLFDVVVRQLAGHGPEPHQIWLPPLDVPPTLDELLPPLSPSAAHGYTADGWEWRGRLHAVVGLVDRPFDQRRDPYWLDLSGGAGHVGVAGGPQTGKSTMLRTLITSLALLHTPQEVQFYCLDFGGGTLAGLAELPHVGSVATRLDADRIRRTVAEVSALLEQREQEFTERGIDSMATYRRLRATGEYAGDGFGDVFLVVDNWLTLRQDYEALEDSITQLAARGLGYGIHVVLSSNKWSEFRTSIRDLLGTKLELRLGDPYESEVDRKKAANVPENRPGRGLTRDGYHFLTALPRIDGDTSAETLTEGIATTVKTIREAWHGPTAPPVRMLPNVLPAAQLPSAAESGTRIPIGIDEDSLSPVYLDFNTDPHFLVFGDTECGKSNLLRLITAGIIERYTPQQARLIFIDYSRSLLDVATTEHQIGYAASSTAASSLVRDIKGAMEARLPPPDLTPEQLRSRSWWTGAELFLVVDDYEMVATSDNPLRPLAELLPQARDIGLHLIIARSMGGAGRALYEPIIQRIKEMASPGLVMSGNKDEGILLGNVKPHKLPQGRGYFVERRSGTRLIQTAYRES

The target in the series “TcEccC(cyto,R543A)” is B4. The series can be described thus: cell-based or functional assay.
Series [3] concerns the molecule itself.
Series [4] addresses T1, TcEccC(cyto), cytoplasmic portion of …. The series can be described thus: fluorescence polarisation. (Polarisation of emitted light reports the rotation of a fluorescent probe.)
The series “cross-linking” concerns the molecule itself. Kind of series: cross-linking.
Series [5] concerns the target T1, TcEccC(cyto), cytoplasmic portion of …. Kind of series: fluorescence polarisation. The source holds these as a separate data set.

As usually defined, the stoichiometry N is a count of units in the complex or per binding partner. Broadly, the Kd is the free concentration of one partner at which half of the binding sites on the other are occupied at equilibrium, for simple one-to-one binding. Low values mean a tighter complex, high ones a looser complex.

Sequence of GbEssCb (A4IKE7 921-1479): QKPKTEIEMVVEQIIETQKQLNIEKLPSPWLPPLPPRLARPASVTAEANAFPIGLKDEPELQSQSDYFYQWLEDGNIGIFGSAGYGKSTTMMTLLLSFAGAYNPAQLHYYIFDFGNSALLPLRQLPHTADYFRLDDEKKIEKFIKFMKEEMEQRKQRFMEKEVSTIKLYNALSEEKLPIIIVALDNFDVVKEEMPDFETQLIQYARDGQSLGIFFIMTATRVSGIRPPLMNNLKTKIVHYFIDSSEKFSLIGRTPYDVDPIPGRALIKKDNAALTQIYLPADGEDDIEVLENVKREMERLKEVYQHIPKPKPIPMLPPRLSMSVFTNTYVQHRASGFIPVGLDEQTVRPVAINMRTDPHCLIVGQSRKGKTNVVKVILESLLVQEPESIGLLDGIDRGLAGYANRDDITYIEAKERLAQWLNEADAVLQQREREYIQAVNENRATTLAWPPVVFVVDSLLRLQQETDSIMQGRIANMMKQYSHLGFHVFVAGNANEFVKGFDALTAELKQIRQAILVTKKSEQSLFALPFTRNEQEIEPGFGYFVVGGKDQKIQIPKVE

Take `Nc1ncnc2c1ncn2[C@@H]1O[C@H](COP(=O)(O)OP(=O)(O)OP(=O)(O)O)[C@@H](O)[C@H]1O` [ATP]: the X-ray crystal structure entry on GbEssCb is listed as “has a very similar structure, with both domains bound to ATP”.

B1: TcEsxA, EsxA of Thermomonospora curvata (natural protein, UniProt D1A4H1 1-97, looked up)
chain: MSDYTRANFGGLSEGEAQFSMTARALLDELTDLEGKLRAKLDRWDGDAQAAYWNYQKEWDAAAKDMQNVVAQLGVAIREAHDNYQAAERANTSIWAG
With B1, the “stoichiometry N” value in series [1] was determined as 1. In the case of B2, in series [2], the dissociation constant (Kd) is ~10 µM. Besides, the “ATPase activity of TcEccC(cyto,R543A) with added TcEsxB (0-10 μM)” value with TcEccC(cyto,R543A) turned out to be 5 fold. The “stoichiometry N” value in series [3] was 2.

B3: TcEsxAB heterodimer (complex, Thermomonospora curvata)
chain 1: MSDYTRANFGGLSEGEAQFSMTARALLDELTDLEGKLRAKLDRWDGDAQAAYWNYQKEWDAAAKDMQNVVAQLGVAIREAHDNYQAAERANTSIWAG
chain 2: MAPQSAVDRAAMAQAAQDIEQSANAIRGMQNQLASAKDQLRSHWEGDASMAFEAVFNRFNEDFSRVLKALDGMHESLVQTRITYEAREEAAQQSVNRVQALLNG
B3: the binding result in series [4] was “binds”. Consider B4, for which the binding result in the series “cross-linking” is “binds”.

B5: fluorescently labeled signal sequence peptide 5-FAM-VNRVQALLNG (peptide)
peptide: 5FAM-VNRVQALLNG
For the molecule B5, the binding result in series [5] is “binds”.
